This note sets out measurements from patent US20210139892, “COMPOSITIONS AND METHODS FOR DELIVERY OF RNA TO A CELL” (The Regents of the University of California, published 2021).

The target of series [1] is T1, U1A-ppTG21 conjugate (U1A Cys variant disulfide-linked to ppTG21 endosomolytic peptide); number of ppTG21 not … (Homo sapiens, UniProt P09012 SEQ:2-98).
T1 chain: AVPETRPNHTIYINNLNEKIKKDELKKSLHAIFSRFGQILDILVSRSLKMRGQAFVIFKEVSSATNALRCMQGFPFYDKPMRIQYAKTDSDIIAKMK
As to the kind of experiment: BLI; biotin-RNA immobilised; 0.33-333 nM conjugate; binding persists ~2000 s. The conditions noted are these: label: 5' biotin; hairpin. From the text: (§1) Biolayer interferometry (BLI) was used to assess the capacity of Cas9 RNPs containing sgRNA variants to bind U1A (or U1A-ppTG21 conjugates) as well as to assess the persistence of any binding events. These assays approximated the experimental design described in Richardson et al. (Nat Biotechnol. 2016 March; 34(3):339-44. doi: 10.1038/nbt.3481). These experiments relied on a Cas9 protein covalently, site-specifically labeled with a biotin moiety, allowing loading onto a BLI sensor bearing streptavidin. The instrument used was an Octet Red 384. The buffer used was 20 mM HEPES, pH 7.5, 100 mM KCl, 10% Glycerol, 0.01 mg/ml Heparin, 0.01% IGEPAL. The loading step of the experiment used Cas9 RNP at 20 nM in the wells. U1A wells contained 100 nM, 330 nM, or 1 μM U1A. […] In contrast to the noSL RNP experiment, the SLabub RNP was markedly bound by the U1A, and the binding persisted for the ˜2000 s (˜33 min) duration of the dissociation phase (FIG. 15A). The SLabub RNP experiment was repeated using U1A-ppTG21 conjugate in the wells at concentrations spanning 100 nM to 6 μM (FIG. 15B).
(§2) The concentrations of U1A-ppTG21 conjugate in the wells covered the range of 0.33-333 nM. Substantial binding was observed between the U1 stem loop and the U1A-ppTG21 conjugate, and this binding persisted for the ˜2000 s (˜33 min) of the dissociation phase (FIG. 15C).

Series [2] has as its target T2, U1A N-terminal RNA-binding domain (Y31H, Q36R; exact Cys variant used in BLI not stated) (Homo sapiens, UniProt P09012 SEQ:2-98).
T2 chain: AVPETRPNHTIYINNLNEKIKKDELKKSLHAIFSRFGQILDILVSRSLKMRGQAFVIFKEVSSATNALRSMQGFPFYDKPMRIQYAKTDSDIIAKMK
As to the kind of experiment: BLI; biotin-Cas9 noSL RNP immobilised; 0.1-1 uM U1A; no substantial binding. The conditions noted are these: tags: none; N-terminal Met removed in E. coli; sgRNA scaffold, no U1A site.
Description: as §1

Series [3] concerns the target T2, U1A N-terminal RNA-binding domain …. Put plainly: BLI; biotin-Cas9 RNP immobilised; 0.1-1 uM U1A; binding persists ~2000 s; 20 mM HEPES pH 7.5, 100 mM KCl, 0.01 mg/ml heparin. The conditions noted are these: tags: none; N-terminal Met removed in E. coli; sgRNA with three U1A stem-loop hairpins.
Description: as §1

The target in series [4] is T1, U1A-ppTG21 conjugate (U1A Cys variant …). Put plainly: BLI; biotin-Cas9 RNP immobilised; 0.1-6 uM conjugate; binding persists ~900 s. The note with it: sgRNA with three U1A stem-loop hairpins.
Description: as §1

Series [5] shares this target. Put plainly: BLI; biotin-RNA immobilised; 0.33-333 nM conjugate; not substantially bound. The note with it: label: 5' biotin; hairpin.
Description: as §1, §2

As for AAUCCAUUGCACUCCGGAUU (ssRNA) [U1 RNA stem loop 2], in series [1], the binding result was “binds”.

B1: noSL sgRNA (EMX1) (ssRNA)
RNA: GUCACCUCCAAUGACUAGGGGUUUAAGAGCUAUGCUGGAAACAGCAUAGCAAGUUUAAAUAAGGCUAGUCCGUUAUCAACUUGAAAAAGUGGCACCGAGUCGGUGCUUUUUUU
For the molecule B1, in series [2], the binding result was “no binding”.

B2: SLabub sgRNA (EMX1) (ssRNA)
RNA: GUCACCUCCAAUGACUAGGGGUUUAAGAGCUAUGGAUCAUUGCACUCCGAUCCAUAGCAAGUUUAAAUAAGGCUAGUCCGUUAUCAACUUGUCGAGGCUAAGUCGCAUUGCACUCCGCGACAGCACAAGCCCGCUGCCAUUGCACUCCGGCAGCAGGGAACUCGUCAAGUGGCACCGAGUCGGUGCUUUUUUU
As to B2, the binding result in series [3] and in series [4] was “binds” each time.

For AAUCCAUUCAUGUACCGGAUU (ssRNA) [U2 RNA stem loop negative control], the binding result in series [5] is on record as “no binding”.
